Assay results: US20170233488A1 (University of California, published 2017)

Target: T1, ALCAM/MEMD/CD166 (human, UniProt Q13740 28-583)
T1 construct: whole, on cells; Endogenous antigen on Du-145 prostate cancer cells (FACS) and in lysates of surface-biotinylated Du-145 cells (IP and Western blot)
T1 sequence (looked up): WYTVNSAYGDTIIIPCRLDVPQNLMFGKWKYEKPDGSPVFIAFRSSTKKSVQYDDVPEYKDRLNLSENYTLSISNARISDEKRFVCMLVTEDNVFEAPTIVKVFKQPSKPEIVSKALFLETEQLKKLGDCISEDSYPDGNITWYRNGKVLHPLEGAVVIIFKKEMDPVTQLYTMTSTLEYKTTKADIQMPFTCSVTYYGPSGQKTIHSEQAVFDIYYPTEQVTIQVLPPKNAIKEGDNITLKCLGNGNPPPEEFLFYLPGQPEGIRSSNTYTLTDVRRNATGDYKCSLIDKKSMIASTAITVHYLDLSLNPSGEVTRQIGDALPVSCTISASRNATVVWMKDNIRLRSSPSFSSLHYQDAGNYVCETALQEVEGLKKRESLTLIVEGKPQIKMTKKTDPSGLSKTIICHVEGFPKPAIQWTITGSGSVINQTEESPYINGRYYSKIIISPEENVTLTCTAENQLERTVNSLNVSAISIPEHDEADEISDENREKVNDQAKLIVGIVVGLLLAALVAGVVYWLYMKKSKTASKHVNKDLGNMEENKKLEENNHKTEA
Assay: FACS on Du-145 cells, equilibrium binding at 4 C overnight, apparent KD by curve fitting of MFI
Method: Monodispersed DU-145 cells were incubated with varying concentrations of IgG1s at 4° C. overnight to allow equilibrium binding. After washing, bound human IgG1 s were detected by R-phycoerythrin-conjugated goat anti-human secondary antibody and analyzed by FACS. Mean fluorescence intensity (MFI) values were plotted and the KD was determined by curve fitting using GraphPad (GraphPad Software, San Diego, Calif.).

Kd: 4.4 pM
B1: anti-ALCAM IgG1 (585II41.1, also known as H3) (antibody, V domains shown)
VH: QVQLVESGGGLVQPGGSLRLSCAASGFTFSSYAMSWVRQAPGKGLEWVSAISGSGGSTYYADSVKGRFTISRDNSKDTLYLQMNSLRAEDTAVYYCASRSLLDYWGQGTLVTVSS
VL: NFMLTQDPAVSVALGQTVRITCQGDSLRSYYASWYQQKPGQAPLLVIYGKNNRPSGIPDRFSGSSSGNTASLTITGAQAEDEADYYCNSRDSSGNPVFGGGTKVTVL
notes: also called H3 IgG; H3 IgG1
